# Where a chain is given by its changes, count along the chain named. Names may count otherwise.
# B1: sdAb n501 R95A (protein)
# chain: EVQLVESGGGLVQPGGSLRLSCAASDFTFRNYEMSWVRQAPGKGLEWVSSISGSGGSTYYAHSLKGRFTISRDNSKNTLYLQMNSLAAEDTAIYYCARLRDGFNNGFDYWGQGTLVTVSS
# B2: sdAb n501 S79A (protein)
# chain: B1 chain with S71A, A87R
# B3: sdAb n501 G16A (protein)
# chain: B1 chain with G15A, A87R
# B4: sdAb n501 T65A (protein)
# chain: B1 chain with T58A, A87R
# B5: sdAb n501 K72A (protein)
# chain: B1 chain with K65A, A87R
# B6: sdAb n501 S18A (protein)
# chain: B1 chain with S17A, A87R
# B7: sdAb n501 T77A (protein)
# chain: B1 chain with T69A, A87R
# B8: sdAb n501 Y67A (protein)
# chain: B1 chain with Y60A, A87R
# B9: sdAb n501 N92A (protein)
# chain: B1 chain with N84A, A87R
# Molecular target: Protein A domain D
# Experiment: BLI
# Conditions: chain shown with the change;; parent: 35.3 nM
row,Binder,Kd [nM]
1,B1,431
2,B2,372
3,B3,96.3
4,B4,1030
5,B5,1360
6,B6,136

# Molecular target: Protein A domain D
# Experiment: ELISA
# Conditions: chain shown with the change;; parent: 7.5 nM
row,Binder,EC50 [nM]
1,B1,404
2,B7,200
3,B2,245
4,B3,92
5,B5,685
6,B6,709
7,B8,162
8,B9,151
